Patent publication US20210269549A1, “ANTI-SAS1B ANTIBODIES, ASSOCIATED METHODS OF USE, AND COMPOSITIONS AND METHODS FOR DETECTING AND TREATING CANCER” (UNIVERSITY OF VIRGINIA PATENT FOUNDATION, priority 2015, published 2021)
Numbering of substitutions follows the chain as printed.

T1: SAS1B extracellular domain (aa 164-431) polypeptide (Homo sapiens, UniProt Q6HA08)
T1 construct: SAS1B extracellular domain (aa 164-431) polypeptide; made in house
T1 sequence (Q6HA08 164-431): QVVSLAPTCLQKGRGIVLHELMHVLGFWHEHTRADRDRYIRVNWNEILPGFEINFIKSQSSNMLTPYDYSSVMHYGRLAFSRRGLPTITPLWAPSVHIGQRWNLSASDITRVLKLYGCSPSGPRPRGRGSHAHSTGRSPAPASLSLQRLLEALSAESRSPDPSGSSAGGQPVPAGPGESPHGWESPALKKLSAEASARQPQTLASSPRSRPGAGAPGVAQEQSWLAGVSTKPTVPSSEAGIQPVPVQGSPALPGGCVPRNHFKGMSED

T2: recombinant human SAS1B antigen (Homo sapiens, UniProt Q6HA08)
T2 sequence (Q6HA08 24-431): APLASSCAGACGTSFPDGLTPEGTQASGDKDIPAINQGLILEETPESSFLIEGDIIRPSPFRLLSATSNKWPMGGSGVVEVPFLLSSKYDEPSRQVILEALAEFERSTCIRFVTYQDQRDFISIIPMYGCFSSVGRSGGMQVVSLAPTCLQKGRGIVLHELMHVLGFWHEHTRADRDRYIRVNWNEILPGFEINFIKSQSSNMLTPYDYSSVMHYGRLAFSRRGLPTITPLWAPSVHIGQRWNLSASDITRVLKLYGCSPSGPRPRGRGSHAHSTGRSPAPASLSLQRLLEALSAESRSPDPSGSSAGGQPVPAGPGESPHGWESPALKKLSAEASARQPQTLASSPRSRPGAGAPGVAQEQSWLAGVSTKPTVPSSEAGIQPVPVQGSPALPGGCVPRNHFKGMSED

T3: human SAS1B (Homo sapiens, UniProt Q6HA08)
T3 construct: made in house; host or cells: E. coli
T3 sequence (Q6HA08 24-431): T2 sequence (Q6HA08 24-431)

B1: SB4: mouse anti-human SAS1B monoclonal antibody, IgG2a; VH SEQ ID NO:16, VL SEQ ID NO:17 (antibody, listed as Mus musculus, V domains shown)
VH: EVQLQQSGPELVKPGSSVKISCKPSGYTFTDYNMVWMKQSHGKSLEWIGAINPNNGGTTYNQKFKGKATLTVDKSSSTAYMELRSLTSEDSAVYYCAPNWDWFAYWGQGTLVTVSA
VL: DVLMTQTPLSLPVSLGDQASISCRSSQSILHSNGNTYLEWYLQKPGQSPKLLIYKVSNRFSGVPDRFSGSGSGTDFTLKISRVEAEDLGVYYCFQGSHVPFTFGSGTKLEIK
B2: SB5: mouse anti-human SAS1B monoclonal antibody, IgG2b; VH SEQ ID NO:16, VL SEQ ID NO:18 (antibody, listed as Mus musculus, V domains shown)
VH: B1 VH
VL: B1 VL with T7I
B3: SB2: mouse anti-human SAS1B monoclonal antibody, IgG2b; VH SEQ ID NO:14, VL SEQ ID NO:15 (antibody, listed as Mus musculus, V domains shown)
VH: B1 VH with P24A, M37V, I51V, T59S, A97V
VL: B1 VL with I29L, L30V, K50N
B4: SB3: mouse anti-human SAS1B monoclonal antibody, IgG2b; VH SEQ ID NO:14, VL SEQ ID NO:15 (antibody, listed as Mus musculus, V domains shown)
VH: B1 VH with P24A, M37V, I51V, T59S, A97V
VL: B1 VL with I29L, L30V, K50N
B5: SB1: mouse anti-SAS1B monoclonal antibody, IgG2a; VH SEQ ID NO:12, VL SEQ ID NO:13 (antibody, listed as Mus musculus, V domains shown)
VH: EVQLQQSGPELVKPGSSVKISCKASGYTFTDYNMDWVKQSHGKSLEWIGAINPNNGGTSYNQKFKGKATLTVDKSSSTAYMELRSLTSEDSAVYYCATNEYWGQGTTLTVSS
VL: NIVMTQSPKSMSMSVGERVTLSCKASENVGTYVSWYQQKPEQSPKLLIYGASNRYTGVPDRFTGSGSATDFTLTISSVQAEDLADYHCGQSYSYPWTFGGGTKLEIK

system: MPanc96 cells (pancreatic ductal adenocarcinoma cell line); assay: Live indirect immunofluorescence cell surface staining, MPanc96; format: cell-based, human; settings: MPanc96, primary antibody 20 ug/mL
Description: Live MPanc96 cells (pancreatic ductal adenocarcinoma cell line) were incubated with different anti-SAS1B monoclonal antibodies (as well as DAPI stain) for nucleus localization. Cells were fixed and permeabilized after primary and secondary antibody incubation thus fluorescence staining observed represents surface localized SAS1B. Monoclonal antibodies SB4 and SB5 were used, as well as normal rabbit or mouse IgG's as a negative control. All primary antibodies were used at a concentration of 20 ug/mL.
The live indirect immunofluorescence protocol is as follows. The cells were dissociated with Acutase and plated on fibronectin coated coverslips. MPanc96 cells were allowed to grow 2-3 days and 366 cells were allowed to grow for 3-4 days. The cells were blocked (blocking 1 solution) with 5% NGS in media for 30 min at RT and then blocked with 5% NGS in chilled media+0.1% sodium azide (blocking 2 solution) for 30 min on ice. The primary antibody (SB4, SB5 or control) was added at 20 ug/mL in blocking 2 solution for 2 hours on ice at 4° C. The cells were washed 3× for 5 minutes each on ice. The secondary antibody (goat anti-Ms/Rb Alexa488 (1:500)) was added in blocking 2 solution for 1 hour in dark on ice at 4° C. The cells were washed 3× for 5 min each on ice and then were fixed with 4% PFA-PBS for 15 min in the dark at RT. The cells were washed 2× for 5 min each at RT and then stained with DAPI stain (1:1000) for 10 min at RT. The cells were washed 2× for 5 min each at RT and then were treated with prolong gold antifade. […] About 10-20% of the SB5 treated cells stained for SASB1.

| Molecule | Cells staining for cell surface SAS1B |
| --- | --- |
| B1 | 65-80% |
| B2 | 10-20% |

same assay, conditions: live MPanc96, primary antibodies 20 ug/mL

| Molecule | Immunoreaction with cell surface localized SAS1B |
| --- | --- |
| B1 | immunoreact with cell surface localized SAS1B |
| B2 | immunoreact with cell surface localized SAS1B |

molecular target: T1, SAS1B extracellular domain (aa 164-431) polypeptide; assay: Western blot with mammalian cell-expressed recombinant SAS1B, extracellular domain; format: binding; settings: not given
Description: SAS1B monoclonal antibodies were analyzed with mammalian cell-expressed recombinant SAS1B by western blotting.

| Molecule | Reaction with SAS1B extracellular domain (aa 164-431) polypeptide |
| --- | --- |
| B3 | none of the them reacted |
| B1 | none of the them reacted |
| B2 | none of the them reacted |
| B4 | none of the them reacted |
| B5 | none of the them reacted |

molecular target: T2, recombinant human SAS1B antigen; assay: Capture assay by sandwich ELISA; format: binding; settings: SB2 coupled to magnetic beads, SB5 coupled to HRP as detection agent, 96 well ELISA format
Description: The antibodies were used to develop a capture assay by sandwich ELISA. The support was a magnetic bead (MB) coupled to SB2, SB3, SB4, or SB5 mAbs. The antigen was a recombinant human SAS1B antigen. Detection was accomplished with mAbs SB2, SB3, SB4, SB5 conjugated with HRP. A HRP substrate was used and TMB was used for quantitation.
The retention of HRP activity after conjugations to SASB1 SB2, SB3, SB4, SB5, and anti-CABYR monoclonal antibody 3A4 was examined. The assay method detected 0.2 femtomole of IgGs. Where SB2 is coupled to magnetic beads and SB5 coupled to HRP is used as a detection agent in a 96 well ELISA format 2.7 pmole/ml of rhSAS1B can be detected.

| Molecule | rhSAS1B that can be detected [pmol/mL] |
| --- | --- |
| B3 | 2.7 |
| B2 | 2.7 |

system: renal cell carcinoma cell line (M1); assay: Morphology of renal cell carcinoma cell line (M1) after 93 h of antibody drug treatment; format: cell-based; settings: 1 nM mAb with 15 nM Fab-DMDM
Description: The morphology of renal cell carcinoma cell line (M1) after 93 h of anti-EGFR antibody drug treatment was examined.

| Molecule | Cell killing and inhibition of cell proliferation (morphology) |
| --- | --- |
| B3 | a large number of rounded dead cells |
| B2 | clear cell killing and inhibition of cell proliferation properties |

molecular target: T3, human SAS1B; assay: Western blot of human SAS1B probed with anti-human SAS1B murine mAbs; format: binding; settings: not given
Description: A western blot of human SAS1B and mouse SAS1B was probed with anti-human SAS1B murine monoclonal antibodies SB1, SB2, SB3, SB4, SB5, SB6, and SB7.

| Molecule | Reactivity on western blot of human SAS1B and mouse SAS1B | Specificity in western blot for human SAS1B antigen in an E. coli protein background |
| --- | --- | --- |
| B3 | specific to the human SAS1B only | demonstrated specificity |
| B1 | specific to the human SAS1B only | demonstrated specificity |
| B2 | specific to the human SAS1B only | demonstrated specificity |
| B4 | specific to the human SAS1B only | demonstrated specificity |
| B5 | reacts with both human and mouse SAS1B | demonstrated specificity |

same assay, conditions: Table 1

| Molecule | Specifically binds human SAS1B (and not mouse SAS1B) |
| --- | --- |
| B3 | Yes |
| B1 | Yes |
| B2 | Yes |
| B4 | Yes |

system: MMMT539 (uterine cancer cell line); assay: Live cell surface indirect immunofluorescence, MMMT539; format: cell-based, human; settings: live cells on ice
Description: Anti-Human SAS1B mouse monoclonal antibodies reactive to SAS1B epitope on live cancer cell surfaces were identified by indirect immuno-fluorescence (IF) for the development of therapeutic antibodies. M1 (renal cancer cell line) and MMMT539 (uterine cancer cell line) cells were seeded at 20,000 cells in 1 ml per well on collagen coated coverslips in 24 well plates. The media was replaced 22 h post seeding. For antibody probing, cells were kept on ice for ˜8 to 18 min following 47 h post-seeding. The first antibody was added at 10 ug/ml, 20 ug/ml or 50 ug/ml in complete culture media with 15 mM NaN3 (pre-chilled), incubated on ice for 60 min, and the cells washed in complete culture media with 15 mM NaN3 in cold 1 ml, ×3. The second antibody, goat-antimouse-AF488 (pre-chilled), was added to the wells at 5 ug/ml in complete culture media with 15 mM NaN3 for 60 min on ice. The cells were washed in complete media with 15 mM NaN3, 1 ml, ×3 on ice. The cells were fixed in 4% PFA in PBS for 20 minutes on ice. The cells were washed in distilled water at RT, 1 ml, ×1 and mounted in 8 ul of SLOWFADE® Diamond Antifade Mountant with DAPI. An anti-EGFR monoclonal antibody was used as a positive control on live M1 cells. Epidermal growth factor receptor (EGFR) is a transmembrane glycoprotein and member of protein kinase superfamily. […] Most of the cells expressed the receptor and validated the live cell surface IF staining methodology for the screening of anti-human SAS1B mouse monoclonal antibodies. The receptor molecule was found on the cell surfaces. Anti-human CABYR monoclonal antibody 3A4 was used as a negative control on live MMMT539 cells. CABYR is a calcium binding cytoskeleton sperm protein with no transmembrane domain.

| Molecule | Fluorescence signal on the surface of live uterine tumor cells |
| --- | --- |
| B3 | clear fluorescence signal |
| B1 | clear fluorescence signal |
| B2 | clear fluorescence signal |
| B4 | clear fluorescence signal |
| B5 | clear fluorescence signal |
